Data on one molecule can be found in publication PMC2686266.

The target of this experiment is the mutant kinases (GST-fused NIK1 kinase domains with single and double amino acid replacements in the A-loop, except T474D).

B1: His-tagged nuclear shuttle protein (NSP) of Cabbage leaf curl virus (CaLCuV), Q96706 1-256 (natural protein)
chain: MYPTKFRRGVSYSQRRFVSRNQSSKRGTFVRRTDGKRRKGPSSKAHDEPKMKLQRIHENQYGPEFVMTHNSALSTFINFPVLGKIEPNRSRSYIKLNRLSFKGTVKIERVHADVNMDGVISKIEGVFSLVIVVDRKPHLSSTGGLHTFDEIFGARIHSHGNLAITPGLKDRYYVLHVLKRVLSVEKDTLMVDLEGSTTISNRRYNCWASFNDLEHDLCNGVYANISKNAILVYYCWMSDAMSKASTFVSYDLDYLG
Regarding B1, the further reduction of the residual autophosphorylation activity of the mutant kinases in vitro in the presence of GST-NSP lay in the range of 50 to 70%.
